Assay results published in paper PMC8514121 (Science signaling, 2020).

T1: Aurora A kinase domain (residues 116 to 389) (human, UniProt O14965 116-389)
T1 sequence (looked up): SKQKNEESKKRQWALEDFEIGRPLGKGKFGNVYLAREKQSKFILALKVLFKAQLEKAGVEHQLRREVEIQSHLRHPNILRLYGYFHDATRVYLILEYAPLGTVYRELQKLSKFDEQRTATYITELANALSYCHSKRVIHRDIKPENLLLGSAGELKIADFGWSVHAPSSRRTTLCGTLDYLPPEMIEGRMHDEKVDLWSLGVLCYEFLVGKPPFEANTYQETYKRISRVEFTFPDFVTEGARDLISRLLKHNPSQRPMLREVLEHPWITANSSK


Columns and labels:
[1] = target: T1, Aurora A kinase domain (residues 116 to …); experiment: crystal structure
[2] = target: the molecule itself; experiment: crystal structure
[3] = target: the molecule itself; experiment: cross-linking

| Binder | binding result [2] | further results |
| --- | --- | --- |
| SYSYDAPSDFINFS (domain or fragment, UniProt Q9ULW0 7-20, looked up) [TPX2 fragment (residues 7 to 20)] | – | binding result [1]: binds |
| CoAlated unphosphorylated C247V + C319V t-Aurora A (domain or fragment, UniProt Q9ULW0 7-20, looked up, coenzyme A disulfide adduct (CoAlation) on Cys290 on approximately two thirds of the protein; unphosphorylated) SYSYDAPSDFINFSSKQKNEESKKRQWALEDFEIGRPLGKGKFGNVYLAREKQSKFILALKVLFKAQLEKAGVEHQLRREVEIQSHLRHPNILRLYGYFHDATRVYLILEYAPLGTVYRELQKLSKFDEQRTATYITELANALSYVHSKRVIHRDIKPENLLLGSAGELKIADFGWSVHAPSSRRTTLCGTLDYLPPEMIEGRMHDEKVDLWSLGVLVYEFLVGKPPFEANTYQETYKRISRVEFTFPDFVTEGARDLISRLLKHNPSQRPMLREVLEHPWITANSSK | binds | – |
| t-Aurora A C247V + D256N + C319V kinase-dead mutant (Cys290-Cys290 disulfide homodimer) (domain or fragment, UniProt Q9ULW0 7-20, looked up, disulfide bond between Cys290 of the two monomers) SYSYDAPSDFINFSSKQKNEESKKRQWALEDFEIGRPLGKGKFGNVYLAREKQSKFILALKVLFKAQLEKAGVEHQLRREVEIQSHLRHPNILRLYGYFHDATRVYLILEYAPLGTVYRELQKLSKFDEQRTATYITELANALSYVHSKRVIHRNIKPENLLLGSAGELKIADFGWSVHAPSSRRTTLCGTLDYLPPEMIEGRMHDEKVDLWSLGVLVYEFLVGKPPFEANTYQETYKRISRVEFTFPDFVTEGARDLISRLLKHNPSQRPMLREVLEHPWITANSSK | binds | – |
| t-Aurora A C247V + C319V double mutant, unphosphorylated, catalytically active (used for the disulfide homodimer) (domain or fragment, UniProt Q9ULW0 7-20, looked up) SYSYDAPSDFINFSSKQKNEESKKRQWALEDFEIGRPLGKGKFGNVYLAREKQSKFILALKVLFKAQLEKAGVEHQLRREVEIQSHLRHPNILRLYGYFHDATRVYLILEYAPLGTVYRELQKLSKFDEQRTATYITELANALSYVHSKRVIHRDIKPENLLLGSAGELKIADFGWSVHAPSSRRTTLCGTLDYLPPEMIEGRMHDEKVDLWSLGVLVYEFLVGKPPFEANTYQETYKRISRVEFTFPDFVTEGARDLISRLLKHNPSQRPMLREVLEHPWITANSSK | – | binding result [3]: binds |
